From publication PMC7614687, “Modulation of the substrate specificity of the kinase PDK1 by distinct conformations of the full-length protein*” (Science signaling, 2023)
No end group written: not given here. *: point of attachment. Biotin = O=C1N[C@H]2[C@H](CS[C@H]2CCCCC(=O)*)N1

Legend:
GST-PDK1_(1-556) = molecular target: T1, GST-PDK1_(1-556) (UniProt O15530 1-556); test: AlphaScreen or HTRF; GST-PDK1_(1-556) (150 nM) and biotin-GS-022; anti-GST coated acceptor beads and streptavidin-coated donor beads; standard buffer; with or without HYG8; conditions: both partners purified
T1 construct: source: HEK293 cells, transient transfection of pEBG2T plasmid, purified, dialyzed to remove GSH
T1 sequence (looked up): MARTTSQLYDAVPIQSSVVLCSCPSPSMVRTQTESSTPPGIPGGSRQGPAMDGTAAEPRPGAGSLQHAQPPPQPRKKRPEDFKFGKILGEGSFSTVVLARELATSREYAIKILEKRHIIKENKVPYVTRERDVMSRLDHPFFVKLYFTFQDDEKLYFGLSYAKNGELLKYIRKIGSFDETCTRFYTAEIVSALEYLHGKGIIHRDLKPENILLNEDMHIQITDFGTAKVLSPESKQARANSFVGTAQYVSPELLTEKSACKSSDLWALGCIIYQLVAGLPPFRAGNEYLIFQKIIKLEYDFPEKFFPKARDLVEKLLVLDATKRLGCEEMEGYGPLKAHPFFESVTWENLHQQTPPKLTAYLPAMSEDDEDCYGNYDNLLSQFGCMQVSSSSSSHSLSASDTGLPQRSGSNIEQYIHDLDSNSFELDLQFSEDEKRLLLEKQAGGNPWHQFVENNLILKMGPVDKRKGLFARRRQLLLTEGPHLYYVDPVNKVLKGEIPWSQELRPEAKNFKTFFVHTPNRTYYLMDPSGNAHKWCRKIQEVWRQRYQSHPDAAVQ

His-PDK1_(1-556) = molecular target: T2, His-PDK1_(1-556) (UniProt O15530 1-556); test: AlphaScreen or HTRF; His-PDK1_(1-556) and GST-PDK1_(360-556); nickel chelate-coated acceptor beads and GSH-coated donor beads; standard buffer 50 mM Tris-HCl pH 7.4, 100 mM NaCl, 2 mM DTT, 0.01% Tween-20, 0.1% BSA; 60 min at room temperature; conditions: both partners purified
T2 construct: also called full-length PDK1; PDK1 FL; source: Sf9 insect cells (Bac-to-Bac baculovirus), purified (Ni-NTA, gel filtration); not shown: His, N-terminal, kept; myc, N-terminal, kept
T2 sequence (looked up): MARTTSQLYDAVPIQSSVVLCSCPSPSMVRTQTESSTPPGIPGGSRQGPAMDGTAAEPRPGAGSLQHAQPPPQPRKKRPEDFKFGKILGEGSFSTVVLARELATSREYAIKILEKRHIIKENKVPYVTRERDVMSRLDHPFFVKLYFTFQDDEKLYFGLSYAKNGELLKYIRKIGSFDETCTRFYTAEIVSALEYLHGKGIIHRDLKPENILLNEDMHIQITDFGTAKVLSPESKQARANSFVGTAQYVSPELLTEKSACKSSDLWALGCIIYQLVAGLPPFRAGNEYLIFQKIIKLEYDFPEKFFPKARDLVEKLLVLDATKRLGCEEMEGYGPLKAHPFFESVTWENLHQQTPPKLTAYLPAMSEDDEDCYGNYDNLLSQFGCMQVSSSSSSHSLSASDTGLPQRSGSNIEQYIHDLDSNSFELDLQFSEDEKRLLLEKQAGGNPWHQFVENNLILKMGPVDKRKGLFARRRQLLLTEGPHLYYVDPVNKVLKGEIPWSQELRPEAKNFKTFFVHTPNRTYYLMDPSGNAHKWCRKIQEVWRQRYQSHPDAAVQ

[1] = molecular target: the molecule itself; test: STORM-based single-molecule fluorescence intensity; TMR-Star-labelled SNAP-PDK1 diluted and adsorbed on PDDA-coated slides; 50 mM Tris-HCl pH 7.4, 100 mM NaCl, 1 mM DTT; dimers told from monomers by spot intensity

B1: biotin-GS-022 (peptide)
peptide: Biotin-RRRQFSLRRKAK
notes: synthetic peptide substrate of PDK1; source: synthetic peptide (Pepscan)
B1: binds (GST-PDK1_(1-556)).

B2: GST-PDK1_(360-556) (domain or fragment, UniProt O15530 360-556, looked up)
chain: AYLPAMSEDDEDCYGNYDNLLSQFGCMQVSSSSSSHSLSASDTGLPQRSGSNIEQYIHDLDSNSFELDLQFSEDEKRLLLEKQAGGNPWHQFVENNLILKMGPVDKRKGLFARRRQLLLTEGPHLYYVDPVNKVLKGEIPWSQELRPEAKNFKTFFVHTPNRTYYLMDPSGNAHKWCRKIQEVWRQRYQSHPDAAVQ
notes: Cloned into the BamHI-KpnI sites of pEBG2T; also called GST-PDK1-Linker-PH; GST-linker-PH domain; source: HEK293 cells, transient transfection of pEBG2T plasmid, purified, dialyzed to remove GSH
B2: binds (His-PDK1_(1-556)).

B3: SNAP-PDK1_(50-556) (enzyme, UniProt O15530 50-556, looked up)
chain: AMDGTAAEPRPGAGSLQHAQPPPQPRKKRPEDFKFGKILGEGSFSTVVLARELATSREYAIKILEKRHIIKENKVPYVTRERDVMSRLDHPFFVKLYFTFQDDEKLYFGLSYAKNGELLKYIRKIGSFDETCTRFYTAEIVSALEYLHGKGIIHRDLKPENILLNEDMHIQITDFGTAKVLSPESKQARANSFVGTAQYVSPELLTEKSACKSSDLWALGCIIYQLVAGLPPFRAGNEYLIFQKIIKLEYDFPEKFFPKARDLVEKLLVLDATKRLGCEEMEGYGPLKAHPFFESVTWENLHQQTPPKLTAYLPAMSEDDEDCYGNYDNLLSQFGCMQVSSSSSSHSLSASDTGLPQRSGSNIEQYIHDLDSNSFELDLQFSEDEKRLLLEKQAGGNPWHQFVENNLILKMGPVDKRKGLFARRRQLLLTEGPHLYYVDPVNKVLKGEIPWSQELRPEAKNFKTFFVHTPNRTYYLMDPSGNAHKWCRKIQEVWRQRYQSHPDAAVQ
modifications: SNAP-Cell TMR-Star label on the SNAP-tag
notes: also called TMR-SNAP-PDK1
B3: binds [1].
